Measured values published in article PMC5498496.

What was measured:
[1] = eptifibatide-induced mAb binding, flow cytometry; settings: glycan lost; control: wild-type β3 with αIIb
[2] = surface expression by mAbs 10E5, AP2, AP3, flow cytometry; settings: glycan lost; control: wild-type αIIbβ3

B1: integrin β3 subunit: β3-N559Q (protein)
parent chain: MRARPRPRPLWATVLALGALAGVGVGGPNICTTRGVSSCQQCLAVSPMCAWCSDEALPLGSPRCDLKENLLKDNCAPESIEFPVSEARVLEDRPLSDKGSGDSSQVTQVSPQRIALRLRPDDSKNFSIQVRQVEDYPVDIYYLMDLSYSMKDDLWSIQNLGTKLATQMRKLTSNLRIGFGAFVDKPVSPYMYISPPEALENPCYDMKTTCLPMFGYKHVLTLTDQVTRFNEEVKKQSVSRNRDAPEGGFDAIMQATVCDEKIGWRNDASHLLVFTTDAKTHIALDGRLAGIVQPNDGQCHVGSDNHYSASTTMDYPSLGLMTEKLSQKNINLIFAVTENVVNLYQNYSELIPGTTVGVLSMDSSNVLQLIVDAYGKIRSKVELEVRDLPEELSLSFNATCLNNEVIPGLKSCMGLKIGDTVSFSIEAKVRGCPQEKEKSFTIKPVGFKDSLIVQVTFDCDCACQAQAEPNSHRCNNGNGTFECGVCRCGPGWLGSQCECSEEDYRPSQQDECSPREGQPVCSQRGECLCGQCVCHSSDFGKITGKYCECDDFSCVRYKGEMCSGHGQCSCGDCLCDSDWTGYYCNCTTRTDTCMSSNGLLCSGRGKCECGSCVCIQPGSYGDTCEKCPTCPDACTFKKECVECKKFDRGALHDENTCNRYCRDEIESVKELKDTGKDAVNCTYKNEDDCVVRFQYYEDSSGKSILYVVEEPECPKGPDILVVLLSVMGAILLIGLAALLIWKLLITIHDRKEFAKFEEERARAKWDTANNPLYKEATSTFTNITYRGT
For B1, the structure_or_conformation [1] was “decreases” and the expression_or_secretion [2] was “no change”.
